Laboratory results taken from patent publication US20200087400A1 (EUREKA THERAPEUTICS, published 2020).

Experiments:
Assay in all cases: phage ELISA, streptavidin plate, anti-M13-HRP
[1] = target: T1, Bio-P19 member A2E-7 (chain 2 (heavy): C-terminal BirA substrate peptide, biotinylated there by BirA; tag letters not given, left out)
T1 construct: also called biotinylated control peptide A2E-7/HLA-A*02:01 monomer; not shown: BirA substrate peptide (BSP) tag at the C-terminus of the heavy chain
How it was run: (§1)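 ELISA: clones incubated on streptavidin-captured biotinylated peptide/HLA-A*02:01 complex, detected by HRP-conjugated anti-M13 with absorbance at 450 nm. FACS: T2 cells, unloaded or peptide-loaded with β2M, stained sequentially on ice (30–60 min per step) with scFv phage, anti-M13 and R-PE anti-mouse IgG.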

[2] = target: T2, Bio-P19 member A2E-13 (chain 2: C-terminal BirA substrate peptide (BSP), enzymatically biotinylated; its letters are not printed in the patent and it is left out)
T2 construct: also called biotinylated control peptide A2E-13/HLA-A*02:01 monomer
How it was run: as §1

[3] = target: T3, Bio-P19 member A2E-23 (chain 2 carries a C-terminal BirA substrate peptide (BSP), enzymatically biotinylated; the BSP letters are not given in the patent and are left out)
T3 construct: also called biotinylated control peptide A2E-23/HLA-A*02:01 monomer
How it was run: as §1

[4] = target: T4, Bio-P19 member A2E-3 (chain 2 carries a C-terminal BirA substrate peptide (BSP), enzymatically biotinylated; the BSP letters are not given in the patent and are left out)
T4 construct: also called biotinylated control peptide A2E-3/HLA-A*02:01 monomer
How it was run: as §1

[5] = target: T5, Bio-P19 member A2E-9 (chain 2 (heavy): C-terminal BirA substrate peptide, biotinylated there by BirA; tag letters not given, left out)
T5 construct: also called biotinylated control peptide A2E-9/HLA-A*02:01 monomer; not shown: BirA substrate peptide (BSP) tag at the C-terminus of the heavy chain
How it was run: as §1

[6] = target: T6, Bio-P19 member A2E-5 (chain 2 carries a C-terminal BirA substrate peptide (BSP), enzymatically biotinylated; the BSP letters are not given in the patent and are left out)
T6 construct: also called biotinylated control peptide A2E-5/HLA-A*02:01 monomer
How it was run: as §1

[7] = target: T7, Bio-P19 member A2E-15 (chain 2: C-terminal BirA substrate peptide (BSP), enzymatically biotinylated; its letters are not printed in the patent and it is left out)
T7 construct: also called biotinylated control peptide A2E-15/HLA-A*02:01 monomer
How it was run: as §1

[8] = target: T8, Bio-P19 member A2E-6 (chain 2 carries a C-terminal BirA substrate peptide (BSP), enzymatically biotinylated; the BSP letters are not given in the patent and are left out)
T8 construct: also called biotinylated control peptide A2E-6/HLA-A*02:01 monomer
How it was run: as §1

[9] = target: T9, Bio-P19 member A2E-2 (chain 2 carries a C-terminal BirA substrate peptide (BSP), enzymatically biotinylated; the BSP letters are not given in the patent and are left out)
T9 construct: also called biotinylated control peptide A2E-2/HLA-A*02:01 monomer
How it was run: as §1

[10] = target: T10, Bio-P19 member A2E-8 (chain 2 (heavy): C-terminal BirA substrate peptide, biotinylated there by BirA; tag letters not given, left out)
T10 construct: also called biotinylated control peptide A2E-8/HLA-A*02:01 monomer; not shown: BirA substrate peptide (BSP) tag at the C-terminus of the heavy chain
How it was run: as §1

[11] = target: T11, Bio-P19 member A2E-4 (chain 2 carries a C-terminal BirA substrate peptide (BSP), enzymatically biotinylated; the BSP letters are not given in the patent and are left out)
T11 construct: also called biotinylated control peptide A2E-4/HLA-A*02:01 monomer
How it was run: as §1

[12] = target: T12, Bio-P19 member A2E-19 (chain 2 carries a C-terminal BirA substrate peptide (BSP), enzymatically biotinylated; the BSP letters are not given in the patent and are left out)
T12 construct: also called biotinylated control peptide A2E-19/HLA-A*02:01 monomer
How it was run: as §1

[13] = target: T13, Bio-P19 member A2E-11 (chain 2: C-terminal BirA substrate peptide (BSP), enzymatically biotinylated; its letters are not printed in the patent and it is left out)
T13 construct: also called biotinylated control peptide A2E-11/HLA-A*02:01 monomer
How it was run: as §1

[14] = target: T14, Bio-P19 member A2E-16 (chain 2: C-terminal BirA substrate peptide (BSP), enzymatically biotinylated; its letters are not printed in the patent and it is left out)
T14 construct: also called biotinylated control peptide A2E-16/HLA-A*02:01 monomer
How it was run: as §1

[15] = target: T15, Bio-P19 member A2E-17 (chain 2: C-terminal BirA substrate peptide (BSP), enzymatically biotinylated; its letters are not printed in the patent and it is left out)
T15 construct: also called biotinylated control peptide A2E-17/HLA-A*02:01 monomer
How it was run: as §1

[16] = target: T16, Bio-P19 member A2E-21 (chain 2 carries a C-terminal BirA substrate peptide (BSP), enzymatically biotinylated; the BSP letters are not given in the patent and are left out)
T16 construct: also called biotinylated control peptide A2E-21/HLA-A*02:01 monomer
How it was run: as §1

Measured: binding result

T5 sequence (b2m, as listed by the source): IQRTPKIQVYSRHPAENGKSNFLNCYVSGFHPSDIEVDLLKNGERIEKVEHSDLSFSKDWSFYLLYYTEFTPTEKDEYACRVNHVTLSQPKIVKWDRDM
T11 sequence (beta, as listed by the source): as the sequence (b2m, as listed by the source) above
T7 sequence (b2m, as listed by the source): as above
T3 sequence (beta, as listed by the source): as the sequence (b2m, as listed by the source) above
T16 sequence (beta, as listed by the source): as the sequence (b2m, as listed by the source) above
T12 sequence (beta, as listed by the source): as the sequence (b2m, as listed by the source) above
T6 sequence (beta, as listed by the source): as the sequence (b2m, as listed by the source) above
T9 sequence (beta, as listed by the source): as the sequence (b2m, as listed by the source) above
T14 sequence (b2m, as listed by the source): as above
T15 sequence (b2m, as listed by the source): as above
T1 sequence (b2m, as listed by the source): as above
T13 sequence (b2m, as listed by the source): as above
T4 sequence (beta, as listed by the source): as the sequence (b2m, as listed by the source) above
T8 sequence (beta, as listed by the source): as the sequence (b2m, as listed by the source) above
T2 sequence (b2m, as listed by the source): as above
T10 sequence (b2m, as listed by the source): as above

B1: PSA146/HLA-A*02:01-specific scFv phage clone #15 (scFv, V domains shown)
VH: QVQLVQSGAEVKKPGSSVKVSCKASGGTFSSYAISWVRQAPGQGLEWMGRIIPILGIANYAQKFQGRVTITADKSTSTAYMELSSLRSEDTAVYYCARVSQPVYGSSTYDIWGQGTLVTVSS
VL: QAVLTQPPSASGTPGQRVTISCSGRSSNLGSNSVNWYQQVPGTAPKLLIFDNHQRPSGVPDRFSGSKSGTSASLAISGLRSEDETDYYCAAWDDSLNSVVFGGGTKLTVLG
no binding: all assays above

B2: PSA146/HLA-A*02:01-specific scFv phage clone #18 (scFv, V domains shown)
VH: QVQLVQSGAEVKKPGESLKISCKGSGYSFTSYWIGWVRQMPGKGLEWMGIIYPGDSDTRYSPSFQGQVTISADKSISTAYLQWSSLKASDTAMYYCARWGSRGFLDAFDIWGQGTMVTVSS
VL: QSVVTQPPSVSAAPGQRVTISCSGSSSNIGNNYVSWYQQLPGAAPRLLIYDNDKRPSGIPDRFSGSKSGTSATLGITGLQTGDEADYYCGTWDSSLSSGVFGGGTKLTVLG
no binding: all assays above
